Laboratory results published in publication PMC6477179.

B1: GFP-FIP200 CTR aa 1458-1594 [human] / GST-p62 FIR 4P [human] (parent)
chain 1: RIMLLERTLQLKEEENKRLNQRLMSQSMSSVSSRHSEKIAIRDFQVGDLVLIILDERHDNYVLFTVSPTLYFLHSESLPALDLKPGEGASGASRRPWVLGKVMEKEYCQAKKAQNRFKVPLGTKFYRVKAVSWNKKV
chain 2: MESDNCSGGDDDWTHLSSKEVDPDTGELQSLQMPESEGPDDLDPDQEGPTGLKEA

Variants of: B1
Experiment: GSH bead recruitment assay imaged by microscopy
Settings: with GST-p62 FIR 4P [human];; read off a plot

| percent of parent | Variant |
| --- | --- |
| 83% | chain 1 S75A |
| 21% | chain 1 R116D |
| 95% | chain 1 N60A |
| 56% | chain 1 N60F |
| 100% | chain 1 L78A |
| 92% | chain 1 L78F |
| 19% | chain 1 F117A |
| 80% | chain 1 F117W |
| 21% | chain 1 R127A |
